Reference: patent publication US20260242729A1

Target: CD28 on the surface of PBMCs and T cells (human) (UniProt P10747)
Assay: flow cytometry; CD28 positive fraction after Fab-multimer magnetic selection, D-biotin release and washing; remaining CD28.3 Fab monomers detected with the α-Ig kappa mAb; live (PI-negative) CD3+ cells; right dot plot

## αCD28 Fab fragment derived from the anti-human CD28 antibody CD28.3, heavy chain C-terminally fused to Twin-Strep-tag (monomeric Fab)
  percentage of cells within gate: 5.91%
